Results on five molecules are retold here after PMC10570030 (Nucleic Acids Research, 2023).

Where no end group is shown, it is not given here. Me3 = trimethyl-lysine (Kme3); Me2 = dimethyl-lysine (Kme2)

The target in one assay is LEDGF/p52 (UniProt O75475-2 1-333). Put plainly: NMR titration.
The target of the next assay is LEDGF/p75 (UniProt O75475 1-530). Put plainly: SEC. (In gel filtration, larger molecules generally elute earlier.)

The Kd is the concentration at which binding is half-saturated. Molecule SAPATGGVK(Me2)KPHRY [histone H3 peptide SAPATGGVKme2KPHRY] yielded a Kd with LEDGF/p52 of 2.4 mM.

B1: PogZ(1117–1410) (domain or fragment)
chain: SNAASLPLSMIVAIDEISLFLDTEVLSSDDRKENALQTVGTGEPWCDVVLAILADGTVLPTLVFYRGQMDQPANMPDSILLEAKESGYSDDEIMELWSTRVWQKHTACQRSKGMLVMDCHRTHLSEEVLAMLSASSTLPAVVPAGCSSKIQPLDVCIKRTVKNFLHKKWKEQAREMADTACDSDVLLQLVLVWLGEVLGVIGDCPELVQRSFLVASVLPGPDGNINSPTRNADMQEELIASLEEQLKLSGEHSESSTPRPRSSPEETIEPESLHQLFEGESETESFYGFEEADLDLMEI
With B1, the binding result with LEDGF/p75 is recorded as “binds”. For the molecule SAPATGGVK(Me)KPHRY [histone H3 peptide SAPATGGVKme1KPHRY], binding with LEDGF/p52 was put at a Kd of 5.4 mM. SAPATGGVK(Me3)KPHRY [histone H3 peptide SAPATGGVKme3KPHRY] displayed a dissociation constant (Kd) with LEDGF/p52 of 2.7 mM. For the molecule SAPATGGVKKPHRY [histone H3 peptide SAPATGGVKKPHRY, unmodified], the equilibrium dissociation constant (Kd) with LEDGF/p52 is 6 mM.
